Legend:
cell-surface human CD8 [1] = target: T1, cell-surface human CD8 (human, UniProt P01732 22-235); assay: flow cytometry on HPB-ALL cells, anti-human IgG (Fc-specific)-APC
T1 construct: the cell is named under assay; also called cellular human CD8; CD8 on PC3-CD8 cells
Description: (§1) Flow cytometry analysis of IgG2 minibodies binding to cell-surface human CD8 on HPB-ALL cells was performed. Cells were stained with respective concentrations of minibody, washed, and then stained with a secondary anti-human IgG (Fc-specific) APC-conjugated antibody. Analysis was performed with 10,000 events/point in triplicate for each concentration. The results are shown in graph format in FIG. 29E. The graph presents the normalized mean fluorescence intensity (MFI) vs. the log of the concentration (nM). Error bars represent the standard error. The data indicates an EC₅₀ of 0.1 nM, 0.13 nM, and 0.08 nM.

cell-surface human CD8 [2] = target: T1, cell-surface human CD8; assay: flow cytometry, HPB-ALL cells
Description: as §1, with “of” for “of IgG2”, “29A.” for “29E.”, “0.15 nM” for “0.1 nM, 0.13 nM,”, “0.19” for “0.08”
as §1

cell-surface human CD8 [3] = target: T1, cell-surface human CD8; assay: flow cytometry on CD8+ cells, transfection supernatant neat to 1:81, anti-human IgG (Fc-specific)-APC
Description: FIGS. 17A-17D display the results of the flow cytometry analysis of the IAb_Mb_CD8 variants. All histograms show allophycocyanin (APC) signal vs. counts. Supernatants from transfection of the variants at different dilutions were incubated with CD8+ cells. Cells were washed and subsequently stained with a secondary anti-human IgG (Fc-specific) APC conjugated antibody. 1×10⁵ cells were stained per point and analysis was performed with 10,000 events/point.

[4] = target: T2, recombinant human CD8 (rhCD8) (human, UniProt P01732 22-182); assay: SPR (BIAcore), minibody captured via anti-human IgG Fc, hCD8 analyte at 50 nM
T2 construct: Soluble purified recombinant protein; also called purified recombinant human CD8 protein; soluble CD8
Excerpt: (§2) Surface plasma resonance (SPR) was used to determine the binding affinity for all the IAb_Mb_CD8 variants to recombinant human CD8 (Table 8.0). The minibody protein in the supernatant was captured on to the BIAcore chip using an anti-human IgG (Fc-specific) antibody. The amount of minibody captured on the chip was normalized to enable a direct comparison of binding affinity between the variants as a kinetic “scouting” experiment to rank affinities. The rhCD8 protein was passed over the captured minibody protein to measure binding.
(§3) Table 8.0 summarizes the measured association (ka), dissociation (kd), and kD constants for the IAb_Mb_CD8 variants binding to recombinant hCD8. The variants were captured on a BIAcore chip using anti-human Fc-specific IgG antibody.

[5] = target: T2, recombinant human CD8 (rhCD8); assay: ELISA on plate-coated rhCD8, transfection supernatant, HRP goat anti-human IgG (Fc-specific), TMB, absorbance 405 nm
Description: 96 well plates were coated with rhCD8 antigen and incubated with supernatants obtained from the transient transfection. Binding was detected with HRP-conjugated goat anti-human (Fc-specific) IgG and TMB substrate. The absorbance measured at 405 nm. Dilutions were done in triplicate. Data is shown as mean of relative absorbance.

cell-surface human CD8 [6] = target: T1, cell-surface human CD8; assay: flow cytometry on HPB-ALL cells, Protein L-biotin then streptavidin-APC
Description: Flow cytometry analysis of cys-diabody (+/−C-terminal cysteine conjugation to Desferoxamine) binding to cell-surface human CD8 on HPB-ALL cells was performed. Cells were stained with respective concentrations of cys-diabody, washed, stained with a secondary Protein L conjugated to Biotin, washed, then stained with a tertiary streptavidin-APC. Analysis was performed with 10,000 events/point in triplicate for each concentration. The results are shown in graph format in FIG. 30C. The graph presents the mean fluorescence intensity (MFI) vs. the log of the concentration (nM). Error bars represent the standard error. The data indicates an EC₅₀ of 0.04 nM and 0.06 nM.

cell-surface human CD8 [7] = target: T1, cell-surface human CD8; assay: flow cytometry on PC3 cells overexpressing CD8, anti-human IgG (Fc-specific)-APC
Description: Flow cytometry analysis of minibody (+/−lysine conjugation to Desferoxamine) binding to PC3 cells overexpressing CD8 was performed. Cells were stained with respective concentrations of minibody, washed, and then stained with a secondary anti-human IgG (Fc-specific) APC-conjugated antibody. Analysis was performed with 10,000 events/point in triplicate for each concentration. The results are shown in graph format in FIG. 29D. The graph presents the mean fluorescence intensity (MFI) vs. the log of the concentration (nM). Error bars represent the standard error. The data indicates an EC₅₀ of 0.64 nM and 0.83 nM.

cell-surface human CD8 [8] = target: T1, cell-surface human CD8; assay: flow cytometry on HPB-ALL cells, anti-human IgG (Fc-specific)-APC; remark: listed apart in the source
cell-surface human CD8 [9] = target: T1, cell-surface human CD8; assay: flow cytometry, HPB-ALL cells; Table 9 summary, HPB-ALL cells
Description: as §1, with “the OKT8 mAbconstruct” for “IgG2 minibodies”, “antibody,” for “minibody,”, “anti-mouse” for “anti-human”, “28.” for “29E.”, “the” for “the normalized”, “0.22” for “0.1 nM, 0.13 nM, and 0.08”

[10] = target: T2, recombinant human CD8 (rhCD8); assay: SPR (BIAcore), antibody as captured ligand, hCD8 analyte at 50 nM
cell-surface human CD8 [11] = target: T1, cell-surface human CD8; assay: flow cytometry, HPB-ALL cells; remark: listed apart in the source
Description: as §1, with “the OKT8 mAbconstruct” for “IgG2 minibodies”, “antibody,” for “minibody,”, “anti-mouse” for “anti-human”, “28.” for “29E.”, “the” for “the normalized”, “0.22” for “0.1 nM, 0.13 nM, and 0.08”

cell-surface human CD8 [12] = target: T1, cell-surface human CD8; assay: flow cytometry on HPB-ALL cells, anti-mouse IgG (Fc-specific)-APC
Description: as §1, with “the OKT8 mAbconstruct” for “IgG2 minibodies”, “antibody,” for “minibody,”, “anti-mouse” for “anti-human”, “28.” for “29E.”, “the” for “the normalized”, “0.22” for “0.1 nM, 0.13 nM, and 0.08”

[13] = target: T2, recombinant human CD8 (rhCD8); assay: SPR (summary table)
Excerpt: as §2, §3

T1 sequence (P01732 22-235 limits assumed): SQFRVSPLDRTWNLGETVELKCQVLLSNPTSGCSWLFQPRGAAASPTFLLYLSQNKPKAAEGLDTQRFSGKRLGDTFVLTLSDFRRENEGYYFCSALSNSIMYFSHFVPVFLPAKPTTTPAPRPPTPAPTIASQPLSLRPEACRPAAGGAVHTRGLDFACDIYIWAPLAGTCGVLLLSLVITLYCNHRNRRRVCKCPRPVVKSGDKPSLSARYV
T2 sequence (P01732 22-182 limits assumed): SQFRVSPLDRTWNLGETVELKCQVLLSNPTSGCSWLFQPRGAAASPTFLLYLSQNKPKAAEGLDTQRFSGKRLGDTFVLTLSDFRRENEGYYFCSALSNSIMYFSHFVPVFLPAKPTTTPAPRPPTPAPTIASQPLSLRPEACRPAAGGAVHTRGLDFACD

B1: IAb_M1b_CD8 IgG2 NH (other)
chain: DVQITQSPSSLSASVGDRVTITCRTSRSISQYLAWYQQKPGKVPKLLIYSGSTLQSGVPSRFSGSGSGTDFTLTISSLQPEDVATYYCQQHNENPLTFGGGTKVEIKGSTSGGGSGGGSGGGGSSEVQLVESGGGLVQPGGSLRLSCAASGFNIKDTYIHFVRQAPGKGLEWIGRIDPANDNTLYASKFQGKATISADTSKNTAYLQMNSLRAEDTAVYYCGRGYGYYVFDHWGQGTLVTVSSERKCCVECPPCPAPPVAGPGQPREPQVYTLPPSREEMTKNQVSLTCLVKGFYPSDIAVEWESNGQPENNYKTTPPMLDSDGSFFLYSKLTVDKSRWQQGNVFSCSVMHEALHNHYTQKSLSLSPGK
notes: Minibody homodimer with native IgG2 hinge and IgG2 CH3
cell-surface human CD8 [1]
  EC50: 0.08 nM
cell-surface human CD8 [2]
  EC50: 0.08 nM

B2: Humanized IAb_Mb1_CD8 (other)
chain: DVQITQSPSSLSASVGDRVTITCRTSRSISQYLAWYQQKPGKVPKLLIYSGSTLQSGVPSRFSGSGSGTDFTLTISSLQPEDVATYYCQQHNENPLTFGGGTKVEIKGSTSGGGSGGGSGGGGSSQVQLVQSGAEVKKPGATVKISCKVSGFNIKDTYIHWVQQAPGKGLEWMGRIDPANDNTLYASKFQGRVTITADTSTDTAYMELSSLRSEDTAVYYCARGYGYYVFDHWGQGTLVTVSSEPKSCDKTHTCPPCGGGSSGGGSGGQPREPQVYTLPPSRDELTKNQVSLTCLVKGFYPSDIAVEWESNGQPENNYKTTPPVLDSDGSFFLYSKLTVDKSRWQQGNVFSCSVMHEALHNHYTQKSLSLSPGK
notes: Minibody homodimer, tested as transfection supernatant; also called humanized OKT8 minibody VL-VH; humanized variants
cell-surface human CD8 [3]
  binding result: binds

B3: IAb_Mb1c_CD8 (other)
chain: DVQITQSPSSLSASVGDRVTITCRTSRSISQYLAWYQQKPGKVPKLLIYSGSTLQSGVPSRFSGSGSGTDFTLTISSLQPEDVATYYCQQHNENPLTFGGGTKVEIKGSTSGGGSGGGSGGGGSSQVQLVQSGAEVKKPGATVKISCKVSGFNIKDTYIHFVQQAPGKGLEWIGRIDPANDNTLYASKFQGKATITADTSTDTAYMELSSLRSGDTAVYYCGRGYGYYVFDHWGQGTLVTVSSEPKSCDKTHTCPPCGGGSSGGGSGGQPREPQVYTLPPSRDELTKNQVSLTCLVKGFYPSDIAVEWESNGQPENNYKTTPPVLDSDGSFFLYSKLTVDKSRWQQGNVFSCSVMHEALHNHYTQKSLSLSPGK
notes: also called variant 1c
[4]
  Ka: 4e+08 M⁻¹
  Kd: 2.5 nM
  koff: 0.0018 s⁻¹
  kon: 700000 M⁻¹ s⁻¹
[5]
  EC50 (read off the curve): ~0.02 mg/L

B4: IAb_M1b_CD8 IgG2 EH (other)
chain: DVQITQSPSSLSASVGDRVTITCRTSRSISQYLAWYQQKPGKVPKLLIYSGSTLQSGVPSRFSGSGSGTDFTLTISSLQPEDVATYYCQQHNENPLTFGGGTKVEIKGSTSGGGSGGGSGGGGSSEVQLVESGGGLVQPGGSLRLSCAASGFNIKDTYIHFVRQAPGKGLEWIGRIDPANDNTLYASKFQGKATISADTSKNTAYLQMNSLRAEDTAVYYCGRGYGYYVFDHWGQGTLVTVSSERKCCVECPPCPGGGSSGGGSGGQPREPQVYTLPPSREEMTKNQVSLTCLVKGFYPSDIAVEWESNGQPENNYKTTPPMLDSDGSFFLYSKLTVDKSRWQQGNVFSCSVMHEALHNHYTQKSLSLSPGK
notes: Minibody homodimer with artificial IgG2 hinge-extension and IgG2 CH3
cell-surface human CD8 [1]
  EC50: 0.13 nM
cell-surface human CD8 [2]
  EC50: 0.13 nM

B5: IAb_Cys-Db3b_CD8-Df (other)
chain: DVQITQSPSSLSASVGDRVTITCRTSRSISQYLAWYQQKPGKVPKLLIYSGSTLQSGVPSRFSGSGSGTDFTLTISSLQPEDVATYYCQQHNENPLTFGGGTKVEIKGGGSGGGGEVQLVESGGGLVQPGGSLRLSCAASGFNIKDTYIHFVRQAPGKGLEWIGRIDPANDNTLYASKFQGKATISADTSKNTAYLQMNSLRAEDTAVYYCGRGYGYYVFDHWGQGTLVTVSSGGC
modifications: Desferoxamine (Df) conjugated to the C-terminal cysteine
notes: also called Df-labeled cys-diabody
cell-surface human CD8 [6]
  EC50: 0.06 nM

B6: IAb_M1b_CD8-Df (other)
chain: DVQITQSPSSLSASVGDRVTITCRTSRSISQYLAWYQQKPGKVPKLLIYSGSTLQSGVPSRFSGSGSGTDFTLTISSLQPEDVATYYCQQHNENPLTFGGGTKVEIKGSTSGGGSGGGSGGGGSSEVQLVESGGGLVQPGGSLRLSCAASGFNIKDTYIHFVRQAPGKGLEWIGRIDPANDNTLYASKFQGKATISADTSKNTAYLQMNSLRAEDTAVYYCGRGYGYYVFDHWGQGTLVTVSSEPKSCDKTHTCPPCGGGSSGGGSGGQPREPQVYTLPPSRDELTKNQVSLTCLVKGFYPSDIAVEWESNGQPENNYKTTPPVLDSDGSFFLYSKLTVDKSRWQQGNVFSCSVMHEALHNHYTQKSLSLSPGK
modifications: Desferoxamine (Df) conjugated to lysine residues
notes: also called Df-labeled minibody
cell-surface human CD8 [7]
  EC50: 0.83 nM
  EC50 (read off the curve): ~0.9 nM
cell-surface human CD8 [8]
  EC50: 0.12 nM

B7: Humanized IAb_Mb2_CD8 (other)
chain: QVQLVQSGAEVKKPGATVKISCKVSGFNIKDTYIHWVQQAPGKGLEWMGRIDPANDNTLYASKFQGRVTITADTSTDTAYMELSSLRSEDTAVYYCARGYGYYVFDHWGQGTLVTVSSGSTSGGGSGGGSGGGGSSDVQITQSPSSLSASVGDRVTITCRTSRSISQYLAWYQQKPGKVPKLLIYSGSTLQSGVPSRFSGSGSGTDFTLTISSLQPEDVATYYCQQHNENPLTFGGGTKVEIKEPKSCDKTHTCPPCGGGSSGGGSGGQPREPQVYTLPPSRDELTKNQVSLTCLVKGFYPSDIAVEWESNGQPENNYKTTPPVLDSDGSFFLYSKLTVDKSRWQQGNVFSCSVMHEALHNHYTQKSLSLSPGK
notes: Minibody homodimer, tested as transfection supernatant; also called humanized OKT8 minibody VH-VL; humanized variants
cell-surface human CD8 [3]
  binding result: binds

B8: OKT8 mAb (antibody, V domains shown)
VH: EVQLQQSGAELVKPGASVKLSCTASGFNIKDTYIHFVRQRPEQGLEWIGRIDPANDNTLYASKFQGKATITADTSSNTAYMHLCSLTSGDTAVYYCGRGYGYYVFDHWGQGTTLTVSS
VL: DVQINQSPSFLAASPGETITINCRTSRSISQYLAWYQEKPGKTNKLLIYSGSTLQSGIPSRFSGSGSGTDFTLTISGLEPEDFAMYYCQQHNENPLTFGAGTKLELK
notes: Parental murine monoclonal antibody (detected with anti-mouse IgG Fc); also called parental OKT8 antibody; parental OKT8
cell-surface human CD8 [9]
  EC50: 0.33 nM
[10]
  Ka: 5.5e+08 M⁻¹
  Kd: 1.8 nM
  koff: 0.001 s⁻¹
  kon: 560000 M⁻¹ s⁻¹
cell-surface human CD8 [11]
  EC50: 0.22 nM
cell-surface human CD8 [12]
  EC50: 0.33 nM
  EC50 (read off the curve): ~0.3 nM
[13]
  Kd: 1.8 nM
